Assays:
Experiment in all cases: bead flow cytometry, AUC minus CD4
[1] = target: T1, HCoV-229E spike protein (Sino Biological 40605-V08B) (HCoV-229E, UniProt P15423 16-1115)
T1 sequence: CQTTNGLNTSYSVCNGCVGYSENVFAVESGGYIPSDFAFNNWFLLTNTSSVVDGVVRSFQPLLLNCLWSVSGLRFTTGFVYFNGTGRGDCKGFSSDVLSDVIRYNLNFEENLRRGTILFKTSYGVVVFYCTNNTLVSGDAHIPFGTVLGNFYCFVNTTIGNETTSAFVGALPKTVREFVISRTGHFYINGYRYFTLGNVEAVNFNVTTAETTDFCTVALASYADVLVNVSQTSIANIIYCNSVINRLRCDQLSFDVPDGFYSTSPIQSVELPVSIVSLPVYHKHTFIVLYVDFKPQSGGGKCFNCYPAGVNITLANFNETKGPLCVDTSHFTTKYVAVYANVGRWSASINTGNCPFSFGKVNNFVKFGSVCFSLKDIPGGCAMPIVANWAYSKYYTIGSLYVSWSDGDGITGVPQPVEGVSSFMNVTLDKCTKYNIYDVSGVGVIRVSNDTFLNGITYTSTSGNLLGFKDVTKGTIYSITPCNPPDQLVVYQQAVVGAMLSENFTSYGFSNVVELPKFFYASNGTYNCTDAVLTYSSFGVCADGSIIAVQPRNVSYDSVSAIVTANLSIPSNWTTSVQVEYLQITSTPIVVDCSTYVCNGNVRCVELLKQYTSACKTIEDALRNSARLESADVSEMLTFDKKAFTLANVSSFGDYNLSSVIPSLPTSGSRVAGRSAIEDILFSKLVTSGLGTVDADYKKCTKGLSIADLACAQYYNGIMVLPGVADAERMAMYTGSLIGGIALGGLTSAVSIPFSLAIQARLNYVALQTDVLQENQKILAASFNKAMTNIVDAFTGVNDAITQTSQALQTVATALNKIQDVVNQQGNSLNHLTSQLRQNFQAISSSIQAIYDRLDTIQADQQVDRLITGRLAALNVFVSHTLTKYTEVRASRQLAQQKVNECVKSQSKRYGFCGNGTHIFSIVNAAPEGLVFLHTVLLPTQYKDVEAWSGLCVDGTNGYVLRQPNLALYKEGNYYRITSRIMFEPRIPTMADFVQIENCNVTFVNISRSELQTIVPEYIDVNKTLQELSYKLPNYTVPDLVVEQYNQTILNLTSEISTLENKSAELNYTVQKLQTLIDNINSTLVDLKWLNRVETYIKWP

[2] = target: T2, HCoV-HKU1 spike protein (Sino Biological 40606-V08B) (HCoV-HKU1, UniProt Q0ZME7 13-1295)
T2 sequence: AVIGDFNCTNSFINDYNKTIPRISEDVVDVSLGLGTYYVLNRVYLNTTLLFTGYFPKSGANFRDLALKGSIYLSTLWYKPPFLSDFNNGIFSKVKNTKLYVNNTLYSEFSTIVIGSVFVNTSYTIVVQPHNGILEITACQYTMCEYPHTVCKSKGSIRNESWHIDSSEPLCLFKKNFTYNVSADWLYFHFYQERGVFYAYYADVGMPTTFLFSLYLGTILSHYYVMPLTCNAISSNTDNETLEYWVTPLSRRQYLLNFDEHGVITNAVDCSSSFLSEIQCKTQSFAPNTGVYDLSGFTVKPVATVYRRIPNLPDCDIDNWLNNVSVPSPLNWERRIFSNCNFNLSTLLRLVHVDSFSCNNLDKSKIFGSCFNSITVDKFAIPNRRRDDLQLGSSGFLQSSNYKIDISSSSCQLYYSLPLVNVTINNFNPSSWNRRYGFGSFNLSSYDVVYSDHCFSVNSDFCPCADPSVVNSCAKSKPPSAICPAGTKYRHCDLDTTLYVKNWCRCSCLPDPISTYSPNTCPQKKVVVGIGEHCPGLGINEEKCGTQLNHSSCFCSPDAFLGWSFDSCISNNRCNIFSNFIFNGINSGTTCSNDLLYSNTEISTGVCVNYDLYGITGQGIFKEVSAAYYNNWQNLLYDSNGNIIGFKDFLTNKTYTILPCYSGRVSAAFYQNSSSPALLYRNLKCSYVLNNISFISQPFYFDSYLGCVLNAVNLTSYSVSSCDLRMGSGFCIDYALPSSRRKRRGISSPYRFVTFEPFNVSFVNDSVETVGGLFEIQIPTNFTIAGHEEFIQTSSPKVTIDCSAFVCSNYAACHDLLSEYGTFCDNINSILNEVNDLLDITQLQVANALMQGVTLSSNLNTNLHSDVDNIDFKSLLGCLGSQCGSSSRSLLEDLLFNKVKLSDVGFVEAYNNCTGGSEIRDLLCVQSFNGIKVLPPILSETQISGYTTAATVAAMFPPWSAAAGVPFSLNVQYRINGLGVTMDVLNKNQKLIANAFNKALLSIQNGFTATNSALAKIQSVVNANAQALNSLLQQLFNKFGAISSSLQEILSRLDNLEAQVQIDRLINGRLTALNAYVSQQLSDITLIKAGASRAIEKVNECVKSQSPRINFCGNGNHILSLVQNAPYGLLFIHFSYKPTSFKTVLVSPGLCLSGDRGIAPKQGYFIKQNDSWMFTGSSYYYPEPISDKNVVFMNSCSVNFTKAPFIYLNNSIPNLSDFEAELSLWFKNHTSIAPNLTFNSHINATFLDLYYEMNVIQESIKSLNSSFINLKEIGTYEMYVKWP

[3] = target: T3, HCoV-NL63 spike protein (Sino Biological 40604-V08B) (HCoV-NL63, UniProt Q6Q1S2 19-1296)
T3 sequence: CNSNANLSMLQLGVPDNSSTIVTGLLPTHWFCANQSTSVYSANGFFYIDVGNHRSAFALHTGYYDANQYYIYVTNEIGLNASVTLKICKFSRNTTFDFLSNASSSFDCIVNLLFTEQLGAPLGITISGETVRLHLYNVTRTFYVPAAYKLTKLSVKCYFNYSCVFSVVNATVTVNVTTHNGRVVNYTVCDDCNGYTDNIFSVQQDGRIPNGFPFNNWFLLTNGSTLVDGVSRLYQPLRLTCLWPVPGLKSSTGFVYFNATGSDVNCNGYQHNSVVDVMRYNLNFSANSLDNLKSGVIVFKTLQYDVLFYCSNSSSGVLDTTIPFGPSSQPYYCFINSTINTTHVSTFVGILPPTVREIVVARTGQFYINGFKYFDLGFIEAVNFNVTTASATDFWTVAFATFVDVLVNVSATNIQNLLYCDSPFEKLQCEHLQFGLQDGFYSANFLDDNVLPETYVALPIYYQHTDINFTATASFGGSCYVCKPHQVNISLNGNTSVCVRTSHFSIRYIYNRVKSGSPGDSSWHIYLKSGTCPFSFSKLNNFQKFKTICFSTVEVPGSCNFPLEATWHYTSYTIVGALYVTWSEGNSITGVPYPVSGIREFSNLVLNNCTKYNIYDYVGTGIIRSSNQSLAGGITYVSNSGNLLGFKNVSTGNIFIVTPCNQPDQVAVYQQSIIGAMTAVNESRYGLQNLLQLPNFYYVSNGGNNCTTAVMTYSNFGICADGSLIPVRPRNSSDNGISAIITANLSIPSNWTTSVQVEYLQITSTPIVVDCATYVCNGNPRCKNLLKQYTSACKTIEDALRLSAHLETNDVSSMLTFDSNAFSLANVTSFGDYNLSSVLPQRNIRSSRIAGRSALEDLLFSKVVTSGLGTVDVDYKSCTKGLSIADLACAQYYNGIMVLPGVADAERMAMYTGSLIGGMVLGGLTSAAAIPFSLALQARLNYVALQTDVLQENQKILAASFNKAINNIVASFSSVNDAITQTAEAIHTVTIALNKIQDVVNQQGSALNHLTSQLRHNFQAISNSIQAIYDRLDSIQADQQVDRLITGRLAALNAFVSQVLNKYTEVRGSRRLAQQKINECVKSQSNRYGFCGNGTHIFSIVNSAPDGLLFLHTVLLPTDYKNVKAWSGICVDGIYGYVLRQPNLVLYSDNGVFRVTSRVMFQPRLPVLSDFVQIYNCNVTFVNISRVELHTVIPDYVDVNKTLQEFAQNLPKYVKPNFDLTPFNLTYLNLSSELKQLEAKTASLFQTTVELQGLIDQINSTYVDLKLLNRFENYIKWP

[4] = target: SARS-CoV-2 spike N-terminal domain (NTD), recombinant (SARS-CoV-2, UniProt P0DTC2 14-305)

Measured: binding result

B1: COV44-26 (antibody, V domains shown)
VH: QVQLVQSGAEVKKPGASVKVSCKASGYTFSNFYMNWVRQAPGQGLEWVGLISPSAGYTAYAQMFQGRVTMTRDTSTSTVYMELSSLRSEDTAVYYCARVAVAGPNDYWGQGTLVTVSS
VL: EIVLTQSPGTLSLSPGERATLSCRASQSISSSYLAWYQQKPGQAPRLVIFAASTRATGIPDRFSGSGSGTDFTLTITRLEPEDFALYYCQHYRSSPPLWTFGQGTKVEIR
no binding (tested: 200 µg/mL): all assays above

Reference: patent US20250145690A1 (US Dept. of Health and Human Services, published 2025)
